Earlier results, collected in patent US8232228B2 (priority 2002, dated 2012).

B1: HarpinEa: Hypersensitive response elicitor protein from Erwinia amylovora, amino acid sequence SEQ. ID. No. 3 (protein)
chain: MSLNTSGLGASTMQISIGGAGGNNGLLGTSRQNAGLGGNSALGLGGGNQNDTVNQLAGLLTGMMMMMSMMGGGGLMGGGLGGGLGNGLGGSGGLGEGLSNALNDMLGGSLNTLGSKGGNNTTSTTNSPLDQALGINSTSQNDDSTSGTDSTSDSSDPMQQLLKMFSEIMQSLFGDGQDGTQGSSSGGKQPTEGEQNAYKKGVTDALSGLMGNGLSQLLGNGGLGGGQGGNAGTGLDGSSLGGKGLQNLSGPVDYQQLGNAVGTGIGMKAGIQALNDIGTHRHSSTRSFVNKGDRAMAKEIGQFMDQYPEVFGKPQYQKGPGQEVKTDDKSWAKALSKPDDDGMTPASMEQFNKAKGMIKRPMAGDTGNGNLQARGAGGSSLGIDAMMAGDAINNMALGKLGAA
modifications: Erwinia amylovora - harpinEa
- heat stable at 100° C.: at least 10 minutes
